Data taken from paper PMC5384396.

Columns and labels:
[1] = target: histidine-tagged recombinant FcγRIIIa (158V) (human); experiment: SPR
[2] = target: hGITR on hGITR-transfected Jurkat cells (human) (UniProt Q9Y5U5)
[3] = target: hGITR on hGITR-transfected Jurkat cells (human) (UniProt Q9Y5U5); remark: listed apart in the source

Chain of hGITR on hGITR-transfected Jurkat cells (human) (Q9Y5U5 26-241): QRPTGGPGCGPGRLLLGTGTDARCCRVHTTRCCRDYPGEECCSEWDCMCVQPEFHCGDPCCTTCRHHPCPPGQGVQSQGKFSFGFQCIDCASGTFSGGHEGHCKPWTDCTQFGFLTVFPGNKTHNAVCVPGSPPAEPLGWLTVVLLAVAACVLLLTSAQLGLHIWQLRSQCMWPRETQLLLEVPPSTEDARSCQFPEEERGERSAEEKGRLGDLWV

IgG1 isotype control antibody was tested, and the Kd [1] was 175 nM.
For “IgG4 Fc-containing GITRL FP (from UniProt Q9UNG2 49-177) (Fc fusion)”, the Jurkat-based NFκB reporter gene assay, EC50, comparison of Fc isotypes (Fig. S5) [2] was 0.3 nM.
“hGITRL FP with the human matrilin 1 trimerization domain (from UniProt Q9UNG2 49-177) (Fc fusion)” was tested, and the NFκB-luciferase reporter in hGITR-transfected Jurkat cells, agonism EC50 [3] was 0.92 nM.
